Reference: FireProtDB (doi:10.1021/bi012042l)

B1: Fatty acid-binding protein, intestinal, P02693 (parent)
chain: MAFDGTWKVDRNENYEKFMEKMGINVVKRKLGAHDNLKLTITQEGNKFTVKESSNFRNIDVVFELGVDFAYSLADGTELTGTWTMEGNKLVGKFKRVDNGKELIAVREISGNELIQTYTYEGVEAKRIFKKE

Variants of: B1
Conditions: Rattus norvegicus; pH 7.3; 20 °C; GdnHCl; Fluorescence; potassium phosphate 20 mM; structure 1IFB; whole UniProt chain shown

| Variant | denaturant midpoint (higher = more stable) | unfolding free energy |
| --- | --- | --- |
| MAFDGTWKVDRNENYEKFMEKMGINVVKRKLGAHDNLKLTITQEPNKFTVKESSNFRNIDVVFELGVDFAYSLADGTELTGTWTMEGNKLVGKFKRVDNGKELIAVREISGNELIQTYTYEGVEAKRIFKKE [G45P] | 0.8 M | 3.1 kcal/mol |
| MAFDGTWKVDRNENYEKFMEKMGINVVKRKLGAHDNLKLTITQEGNKFTVKESSNFRNIDVVFELPVDFAYSLADGTELTGTWTMEGNKLVGKFKRVDNGKELIAVREISGNELIQTYTYEGVEAKRIFKKE [G66P] | 0.9 M | 2.5 kcal/mol |
| MAFDGTWKVDRNENYEKFMEKMGINVVKRKLGAHDNLKLTITQEGNKFTVKESSNFRNIDVVFELGVDFAYSLADGTELTGTWTMEGNKLVGKFKRVDNPKELIAVREISGNELIQTYTYEGVEAKRIFKKE [G100P] | 0.7 M | 3.5 kcal/mol |
| MAFDGTWKVDRNENYEKFMEKMGINVVKRKLGAHDNLKLTITQEGNKFTVKESSNFRNIDVVFELGVDFAYSLADGTELTGTWTMEGNKLVGKFKRVDNGKELIAVREISGNELIQTYTYEPVEAKRIFKKE [G122P] | 0.6 M | 1.2 kcal/mol |
| MAFDGTWKVDRNENYEKFMEKMGINVVKRKLGAHDNLKLTITQEGNKFTVKESSNFRNIDVVFELGVDFAYSLADGTELTGTWTMEGNKLVGKFKRVDNGKELIAVREISPNELIQTYTYEGVEAKRIFKKE [G111P] | 1 M | 5 kcal/mol |
